Measurements from patent US20240376207A1 (JIANGSU HENGRUI PHARMACEUTICALS, published 2024).

T1: his-tagged human PVRIG (h-PVRIG-his) recombinant protein (human, UniProt Q6DKI7 41-171, limits assumed)
T1 construct: bought from Acrobiosystems; also called Human PVRIG-his; human PVRIG recombinant protein; not shown: his tag
T1 sequence (looked up): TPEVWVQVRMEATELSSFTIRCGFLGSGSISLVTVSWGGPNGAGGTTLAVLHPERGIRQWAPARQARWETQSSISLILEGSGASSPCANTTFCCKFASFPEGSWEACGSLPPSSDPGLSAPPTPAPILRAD

T2: human TIGIT expressed on cells (human, UniProt Q495A1 22-244)
T2 construct: whole, on cells; also called cells overexpressing human TIGIT
T2 sequence (looked up): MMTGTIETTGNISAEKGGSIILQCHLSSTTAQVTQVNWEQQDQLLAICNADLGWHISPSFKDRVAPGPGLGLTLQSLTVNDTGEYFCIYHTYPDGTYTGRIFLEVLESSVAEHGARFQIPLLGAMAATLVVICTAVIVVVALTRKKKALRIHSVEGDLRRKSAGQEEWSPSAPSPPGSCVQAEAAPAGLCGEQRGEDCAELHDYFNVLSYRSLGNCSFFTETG

T3: mouse IgG2a Fc-tagged human PVRIG (h-PVRIG-mIgG2a Fc) recombinant protein (human, UniProt Q6DKI7 41-171, limits assumed)
T3 construct: bought from Acrobiosystems; not shown: mouse IgG2a Fc tag
T3 sequence (looked up): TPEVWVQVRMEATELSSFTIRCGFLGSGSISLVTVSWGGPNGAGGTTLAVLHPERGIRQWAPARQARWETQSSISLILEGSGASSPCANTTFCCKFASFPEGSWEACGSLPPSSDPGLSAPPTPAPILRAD

T4: his-tagged cynomolgus monkey PVRIG (cyno-PVRIG-his) recombinant protein (cynomolgus monkey)
T4 construct: expressed in HEK293, purified by Ni-NTA; also called Monkey PVRIG-his; cynomolgus monkey PVRIG recombinant protein
T4 chain: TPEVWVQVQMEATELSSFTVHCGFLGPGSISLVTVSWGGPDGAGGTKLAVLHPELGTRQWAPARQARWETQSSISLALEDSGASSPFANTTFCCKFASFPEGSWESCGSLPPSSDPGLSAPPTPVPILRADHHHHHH


What was measured:
[1] = molecular target: T1, his-tagged human PVRIG (h-PVRIG-his) …; assay: ELISA, coated antigen
Experimental: (§1) ELISA assay was used to detect binding properties of anti-PVRIG antibodies. […] After the antibody was added, the activity of the binding of the antibody to the antigen was detected by adding a secondary antibody (HRP-conjugated anti-primary antibody Fc antibody) and HRP substrate TMIB.
(§2) A human, cynomolgus monkey, or mouse PVRIG protein (at a concentration of 1 μg/mL) was coated on a 96-well microplate at 100 μL per well, and incubated overnight at 4° C. The plate was washed three times with wash buffer at 250 μL per well. For each wash, the plate was shaken for 10 s to ensure adequate cleaning. A blocking solution (PBS+0.05% Tween20+1% BSA) was added at 300 μL/well, and the plate was incubated at room temperature for 1 h. The plate was washed three times with wash buffer at 250 μL per well. For each wash, the plate was shaken for 10 s to ensure adequate cleaning. Dilutions of the test anti-PVRIG antibodies were added at 100 μL/well. The plate was incubated at 37° C. for 1 h. The plate was washed three times with wash buffer at 250 μL per well. The […] anti-human IgG secondary antibody (Sigma, A8667) was added at 100 μL per well. The plate was incubated at 37° C. for 1 h. The plate was washed three times with wash buffer at 250 μL per well. TMB was added at 100 μL/well, and the plate was incubated in the dark for 15 min. 0.16 M sulfuric acid was added at 50 μL/well. The OD values at 450 nm were read by using a Thermo MultiSkanFc microplate reader, and the EC₅₀ values of the binding of the anti-PVRIG antibodies to PVRIG were calculated.

[2] = molecular target: T2, human TIGIT expressed on cells; assay: FACS, cells overexpressing target
Experimental: (§3) The expression plasmid carrying human or cynomolgus monkey PVRIG gene sequence was transfected into HEK293 cells, and the over-expressing stable transfection monoclonal cell strain was obtained by antibiotic screening and infinite dilution. Overexpressing cells were seeded into a 96-well plate at 2×10⁵ cells/per well. The cells were centrifuged at 300 g for 5 min, the supernatant was then removed, 100 μL of the test antibody was added, and the mixture was incubated at 4° C. for 1 h. The mixture was centrifuged, the supernatant was removed, the plate was washed 3 times with 200 μL of wash buffer (PBS+2% FBS), and then 100 μL of an anti-human IgG secondary antibody (Invitrogen, A-11013) labeled with Alexa Fluor 488 diluted at 1:500 was added. The mixture was incubated at 4° C. for 1 h. The plate was centrifuged, and the supernatant was removed. The plate was washed 3 times with 200 μL of wash buffer (PBS+2% FBS). The cells were resuspended in 100 μL of PBS and tested on a flow cytometer (BD FACS Calibur or BD FACS Canto_II).
(§4) Similarly to Examples 4, 5 and 6, the binding of humanized anti-PVRIG/TIGIT bispecific antibodies to human and cynomolgus monkey TIGIT and blocking of binding of human TIGIT to ligand were detected, where PVRIG protein was replaced with TIGIT and PVRL2 was replaced with PVR.

[3] = molecular target: T5, cynomolgus monkey TIGIT expressed on cells (cynomolgus monkey, UniProt A0A7N9I9V4 89-312); assay: FACS, cells overexpressing target
T5 construct: whole, on cells; also called cells overexpressing cynomolgus monkey TIGIT
T5 sequence (A0A7N9I9V4 entry or part of it): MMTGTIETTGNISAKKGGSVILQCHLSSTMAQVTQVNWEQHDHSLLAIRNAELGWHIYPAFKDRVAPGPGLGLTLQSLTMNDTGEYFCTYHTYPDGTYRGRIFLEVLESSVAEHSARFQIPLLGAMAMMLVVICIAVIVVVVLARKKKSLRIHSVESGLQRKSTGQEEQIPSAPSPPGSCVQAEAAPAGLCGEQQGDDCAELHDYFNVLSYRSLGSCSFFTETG
Experimental: as §3, §4

[4] = molecular target: T3, mouse IgG2a Fc-tagged human PVRIG …; assay: competition ELISA; human PVRIG coated, competitor human PVRL2
Experimental: The h-PVRIG-mIgG2a Fc protein (at a concentration of 1 μg/mL) was coated on the 96-well microplate at 100 μL per well, and incubated overnight at 4° C. The plate was washed three times with wash buffer at 250 μL per well. For each wash, the plate was shaken for 10 s to ensure adequate cleaning. A blocking solution was added at 300 μL/well, and the plate was incubated at room temperature for 1 h. The plate was washed three times with wash buffer at 250 μL per well. For each wash, the plate was shaken for 10 s to ensure adequate cleaning. 50 μL of diluted test anti-PVRIG antibody and 50 μL of his-tagged ligand PVRL2 were added to each well, and the plate was incubated at 37° C. for 1 h. The plate was washed three times with wash buffer at 250 μL per well. The HRP-labeled anti-his-tagged secondary antibody (Genscrpit) diluted at 1:2000 was added at 100 μL per well. The plate was incubated at 37° C. for 1 h. The plate was washed three times with wash buffer at 250 μL per well. TMB was added at 100 μL/well, and the plate was incubated in the dark for 15 min. 0.16 M sulfuric acid was added at 50 μL/well. OD values at 450 nm were measured using a Thermo MμtLtiSkanFc microplate reader, and the IC₅₀ values of the anti-PVRIG antibodies blocking the binding of PVRIG to PVRL2 were calculated.
Binding of the humanized anti-PVRIG/TIGIT bispecific antibodies to human and cynomolgus monkey PVRIG and their blocking of the ligand of human PVRIG were detected according to the methods of Examples 4, 5 and 6.

[5] = molecular target: T4, his-tagged cynomolgus monkey PVRIG …; assay: ELISA, coated antigen
Experimental: as §1, §2

| EC50 [1] | binding result [2] | binding result [3] | IC50 [4] | EC50 [5] | EC50 [2] | EC50 [3] | Binder |
| --- | --- | --- | --- | --- | --- | --- | --- |
| 2860 pM | no binding | no binding | 964 pM | – | – | – | positive antibody Tab5 (antibody, human IgG4 S228P, kappa, F234A L235A, V domains shown, Variable regions of CPA.7.021 (WO2016134333A1) on human IgG4 (S228P/F234A/L235A/K447A) and human kappa constant regions) VH: EVQLVESGGGVVKPGGSLRLSCAASGFTFGTSSMNWVRQAPGKGLEWVAVISFDGTEIHYADSVKGRFTISRDNSKSTVFLQMNSLRPDDTALYYCAKGSGNIYFYSGMDVWGQGTTVTVSS VL: DIQMTQSPSTLSASVGDRVTITCRAGQSISGWLAWFQQKPGKAPNLLIYETSTLESGVPSRFSGSGSGTEYTLTISSLQPDDFATYYCQQYYSYPLTFGQGTKVEIKR |
| 2150 pM | – | – | – | 2430 pM | – | – | anti-PVRIG antibody 151 (antibody, human IgG4 S228P, F234A L235A, V domains shown, no light chain) VH: HVQLVESGGGSVQAGGSLRLSCVASASGFTYRPYCMAWFRQAPGKEREAVAGIDIFGGTTYADSVKGRFTASRDNAGFSLFLQMNDLKPEDTAMYYCAAGDSPDGRCPPLGQGLNYWGQGTQVTVSS |
| – | – | – | 628 pM | – | 10 pM | 9 pM | humanized anti-PVRIG/TIGIT bispecific antibody 1708-20H5 (bispecific antibody, human IgG4 S228P, kappa) heavy: not shown light: DIQMTQSPSSLSASVGDRVTITCRASENIYSYLAWYQQKPGKSPKLLIYNARTLAEGVPSRFSGSGSGTDFTLTISSLQPEDFATYYCQYHSGSPLPFGGGTKVEIKRTVAAPSVFIFPPSDEQLKSGTASVVCLLNNFYPREAKVQWKVDNALQSGNSQESVTEQDSKDSTYSLSSTLTLSKADYEKHKVYACEVTHQGLSSPVTKSFNRGEC |
| – | – | – | 552 pM | – | 10 pM | 9 pM | humanized anti-PVRIG/TIGIT bispecific antibody 1708-30H2 (bispecific antibody, human IgG4 S228P, kappa) heavy: not shown light: DIQMTQSPSSLSASVGDRVTITCRASENIYSYLAWYQQKPGKSPKLLIYNARTLAEGVPSRFSGSGSGTDFTLTISSLQPEDFATYYCQYHSGSPLPFGGGTKVEIKRTVAAPSVFIFPPSDEQLKSGTASVVCLLNNFYPREAKVQWKVDNALQSGNSQESVTEQDSKDSTYSLSSTLTLSKADYEKHKVYACEVTHQGLSSPVTKSFNRGEC |
| 260 pM | – | – | – | 400 pM | – | – | anti-PVRIG antibody 38 (antibody, human IgG4 S228P, F234A L235A, V domains shown, no light chain) VH: QVQLVESGGGSVQAGGSLRLSCAASPSTYGPSDMAWFRQAPGKQREGVATISAAGRLTYYTDSVRGRFTISRDNAKNTMYLQMNSLKPEDTAMYYCAADFAGGSSLFADYKYWGQGTQVTVSS |
| 260 pM | – | – | – | 160 pM | – | – | anti-PVRIG antibody 30 (antibody, human IgG4 S228P, F234A L235A, V domains shown, no light chain) VH: HVQLVESGGGSVQAGGSLRLSCEASGYSYSGDCMGWFRRAPGKERDEGVATIDNAGRIKYADSVKGRFTISHGNGKYILYLQMNSLKPEDTDMYYCAAGWTFGGNCSPADWGQGTQVTVSS |
| 270 pM | – | – | – | 160 pM | – | – | anti-PVRIG antibody 39 (antibody, human IgG4 S228P, F234A L235A, V domains shown, no light chain) VH: QVQLVESGGGSVQAGGSLRLSCAASRYTSRTDCMGWFRQAPGKEREGVAHIDSDGIPRYVESVKGRFTISQDHAKNTLYLQMNSLKPEDSATYYCVVGFKFGDYCAPNDWGQGTQVTVSS |
